Results as given in US8597660B2, “Therapeutic approach to neurodegenerative disorders using a TFP5-peptide” (The United States of America, as represented by the …, priority 2010, dated 2013).
Entries after “also recorded” stand apart in the source; their conditions may differ.

Columns and labels:
Cdk5/P25 [1] = molecular target: T1, Cdk5/P25 (Homo sapiens, UniProt Q00535); test: In vitro kinase (pad) assay of active Cdk5/P25 with histone H1 as substrate; assay type: biochemical
Method: (§1) Kinase assays were performed as previously described (Veeranna, et al., J Neurosci 18(11), 4008-4021, 1998). Briefly, 7 days in culture (7 DIC) primary rat cortical neurons were infected with P25, P35, Cdk5 wild-type, dominant negative-Cdk5 and P5 using the lentiviral gene delivery as described earlier. Cdk5 was immunoprecipitated using the polyclonal C8 antibody overnight at 4° C. and immunoglobulin isolated using Protein A sepharose beads for 2 hours at 4° C. Immunoprecipitates were washed three times with lysis buffer and then once with 1× kinase buffer containing 20 mM Tris-Cl pH 7.4, 1 mM EDTA, 1 mM EGTA, 10 mM MgCl2, 10 mM sodium fluoride and 1 mM sodium orthovanadate. Endogenous Cdks were immunoprecipitated from HEK 293 cells using their respective antibodies and treated as above. Kinase assays were performed in the same buffer containing 1 mM DTT, 0.1 mM ATP and 0.185 MBq [γ-32P] ATP with 20 μg of histone H1 as the substrate. Phosphorylation was performed in a final volume of […] incubated at 30° C. for 60 minutes, stopped by the addition of 10% SDS sample buffer and heating at 95° C. for 5 minutes. Samples were separated by SDS-PAGE, gels were stained with Coomassie, destained, dried and exposed to autoradiography. In pad assays, 25 μl aliquots of the incubation mixture were placed on a Whatman p80 paper square, washed and dried and placed in a scintillation vial for counting.
These are GST-P1 (E211-A277 of SEQ ID NO: 16), 67 amino acid residues; GST-P2 (M237-A277), 41 residues; GST-P3 (E221-L267 of SEQ ID NO: 16), 47 residues; GST-P4 (E221-L249 of SEQ ID NO: 16), 29 residues and GST-P5 (K254-A277 of SEQ ID NO: 16) 24 residues. Each was incubated with active Cdk5/P25 in a kinase assay in vitro. […] FIG. 10 provides a comparison of P5 and CIP, relative to P35.
In a dose-dependent kinase assay the effective inhibitory concentration of P5 for both the Cdk5/P25 and Cdk5/P35 complexes was evaluated. His-P5 peptide was added at different concentrations to the in vitro assay containing 100 μM [γ32-P] ATP and histone H1. Inhibition increased progressively with increasing P5 concentration in both complexes (Compare FIGS. 2A, 2B with 2C, 2D).
P5, a 24 amino acid peptide derived from Cdk5 regulator p35, was modified by conjugating it with TAT PTD at the C-terminal end and with FITC (using a GGG linker) at the N-terminus to produce a fluorescent (FITC-labeled) TFP5 (SEQ ID NO: 2) peptide. In a dose-dependent kinase assay the effective inhibitory concentration of TFP5 for both the Cdk5/P25 and Cdk5/P35 complexes was evaluated. His-P5 peptide was added at different concentrations to the in vitro assay containing 100 μM [γ32-P] ATP and histone H1. […] Data represent means of four independent experiments with error bars representing SEM (*p≦0.05, **p≦0.001).

Cdk5/P25 [2] = molecular target: T1, Cdk5/P25; test: Cdk5/P25 kinase assay after pre-incubation with β-tubulin; assay type: biochemical
Method: Tubulin polymerization was performed as detailed in a previous report (Hou et al., J. Biol. Chem., 282(26), 18666-18670, 2007). Briefly, active kinase Cdk5/P35 (2 ng/μL) or active Cdk5/P25 (1 ng/μL) were incubated with β-tubulin (enzyme: tubulin at 1:100) in the PEM buffer (80 mM PIPES, 2 mM MgCl2, 1 mM EGTA PH 7.0) supplemented with 1 mM GTP at 35° C. for 45 minutes. Following the incubation, Cdk5 kinase assays were performed with or without the addition of 0.45 μM or 0.90 μM P5.
To further explore this possibility, β-tubulin (which is enriched in neurons) was used to perform a study in vitro to mimic P35 interactions in cells. Cdk5/P35 and Cdk5/P25 active kinases were pre-incubated with β-tubulin (Cdk5 kinase:tubulin=1:100) respectively at 35° C. for 45 minutes to 1 hour under conditions that would promote tubulin polymerization, followed by a Cdk5 kinase assay with/without the addition of P5. […] Cdk5/P25 activity, however, was inhibited 60% after pre-incubation at the lower P5 concentration (0.45 μM) (FIG. 9B, lane 4 compared with lane 1) (p<0.01). […] On the other hand, P25, lacking the P10 domain, fails to bind these proteins, and P5 readily binds with Cdk5 in the Cdk5/P25 complex to inhibit activity.

Cdk5/P35 [3] = test: Kinase assay of Cdk5 immunoprecipitates from cortical neurons, infected or endogenous Cdk5/P35; assay type: cell-based, rat; conditions: E-18 rat cortical neurons co-infected with P5
Method: as §1, with “Briefly,” for “Kinase assays were performed as previously described (Veeranna, et al., J Neurosci 18(11), 4008-4021, 1998). Briefly,”, “Kinase assays were performed in the same buffer containing 1 mM DTT, 0.1 mM ATP and 0.185 MBq [γ-32P]” left out

Cdk5/P35 [4] = molecular target: T2, Cdk5/P35 (Rattus norvegicus, UniProt Q03114); test: as above; assay type: cell-based; conditions: cortical neurons infected only with P5, or uninfected treated with 20 μM roscovitine
T2 construct: endogenous in cells; host or cells: E-18 rat cortical neurons
T2 sequence (Q03114 whole entry): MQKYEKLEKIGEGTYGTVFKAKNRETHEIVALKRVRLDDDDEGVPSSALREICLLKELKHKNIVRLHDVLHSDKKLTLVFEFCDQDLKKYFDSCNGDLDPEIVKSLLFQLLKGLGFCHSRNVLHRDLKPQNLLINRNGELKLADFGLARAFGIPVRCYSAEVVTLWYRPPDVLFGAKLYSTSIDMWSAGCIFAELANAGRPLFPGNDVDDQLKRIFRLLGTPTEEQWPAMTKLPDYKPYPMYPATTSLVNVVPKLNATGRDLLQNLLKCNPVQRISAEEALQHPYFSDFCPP
T2 sequence (P61810 2-307 partner): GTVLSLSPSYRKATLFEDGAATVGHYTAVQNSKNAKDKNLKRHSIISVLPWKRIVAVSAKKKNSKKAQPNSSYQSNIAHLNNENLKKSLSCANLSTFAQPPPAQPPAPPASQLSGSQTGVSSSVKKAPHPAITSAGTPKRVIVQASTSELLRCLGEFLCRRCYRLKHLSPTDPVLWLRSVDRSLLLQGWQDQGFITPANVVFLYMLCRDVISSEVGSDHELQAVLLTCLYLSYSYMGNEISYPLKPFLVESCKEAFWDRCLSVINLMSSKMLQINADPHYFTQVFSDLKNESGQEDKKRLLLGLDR
Method: as §1, with “Briefly,” for “Kinase assays were performed as previously described (Veeranna, et al., J Neurosci 18(11), 4008-4021, 1998). Briefly,”, “Kinase assays were performed in the same buffer containing 1 mM DTT, 0.1 mM ATP and 0.185 MBq [γ-32P]” left out

Cdk5/P35 [5] = molecular target: Cdk5/P35 (Homo sapiens, UniProt Q00535); test: In vitro kinase (pad) assay of active Cdk5/P35 with histone H1 as substrate; assay type: biochemical; conditions: 0.7 μM P5
Chain of Cdk5/P35 (Homo sapiens, UniProt Q00535) (Q00535 whole entry, species assumed): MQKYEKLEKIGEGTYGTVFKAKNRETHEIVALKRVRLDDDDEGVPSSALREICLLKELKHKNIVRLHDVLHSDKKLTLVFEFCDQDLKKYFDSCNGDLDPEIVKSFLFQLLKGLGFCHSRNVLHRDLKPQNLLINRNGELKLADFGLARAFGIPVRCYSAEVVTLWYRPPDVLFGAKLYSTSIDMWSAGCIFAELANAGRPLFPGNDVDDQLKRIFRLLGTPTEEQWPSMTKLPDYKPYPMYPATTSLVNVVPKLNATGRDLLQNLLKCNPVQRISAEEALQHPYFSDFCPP
Method: Kinase assays were performed as previously described (Veeranna, et al., J Neurosci 18(11), 4008-4021, 1998). Briefly, 7 days in culture (7 DIC) primary rat cortical neurons were infected with P25, P35, Cdk5 wild-type, dominant negative-Cdk5 and P5 using the lentiviral gene delivery as described earlier. Cdk5 was immunoprecipitated using the polyclonal C8 antibody overnight at 4° C. and immunoglobulin isolated using Protein A sepharose beads for 2 hours at 4° C. Immunoprecipitates were washed three times with lysis buffer and then once with 1× kinase buffer containing 20 mM Tris-Cl pH 7.4, 1 mM EDTA, 1 mM EGTA, 10 mM MgCl2, 10 mM sodium fluoride and 1 mM sodium orthovanadate. Endogenous Cdks were immunoprecipitated from HEK 293 cells using their respective antibodies and treated as above. […]
In a dose-dependent kinase assay the effective inhibitory concentration of P5 for both the Cdk5/P25 and Cdk5/P35 complexes was evaluated. […]
P5, a 24 amino acid peptide derived from Cdk5 regulator p35, was modified by conjugating it with TAT PTD at the C-terminal end and with FITC (using a GGG linker) at the N-terminus to produce a fluorescent (FITC-labeled) TFP5 (SEQ ID NO: 2) peptide. In a dose-dependent kinase assay the effective inhibitory concentration of TFP5 for both the Cdk5/P25 and Cdk5/P35 complexes was evaluated. […]

T1 sequence (Q00535 whole entry, species assumed): as above

P5: 24 residue peptide derived from Cdk5 activator P35 (K254-A277 of SEQ ID NO: 16); Cdk5 inhibitory peptide (KEAFWDRCLSVINLMSSKMLQINA; listed as Homo sapiens)
Inhibition of Cdk5/P25 activity (Cdk5/P25 [1]; 0.7 μM P5): approximately 70% | Specificity of inhibition, Cdk5/P25 versus Cdk5/P35 (Cdk5/P25 [1]; in vitro (test tube) assay, 0.05 to 1.2 μM): equally inhibits each Cdk5 complex in a dose-dependent manner; also recorded: not specific for Cdk5/P25; also recorded: non-specific in vitro | Inhibition of Cdk5/P25 activity, comparison among peptides and CIP (Cdk5/P25 [1]; in vitro kinase assay, histone H1, FIG. 1): most effective inhibitor of Cdk5/P25; also recorded: more effective inhibitors of Cdk5/P25 activity than CIP | Inhibition of Cdk5/P25 activity with unpolymerized tubulin (no pre-incubation) (Cdk5/P25 [2]; 0.45 μM P5): P5 inhibits both kinases equally; also recorded: inhibited both Cdk5/P35 and Cdk5/P25 activities equally; also recorded: inhibited both complexes equally | Inhibition of Cdk5/P25 activity pre-incubated with polymerized tubulin (Cdk5/P25 [2]; 0.9 μM P5): both kinase complexes are inhibited equally; also recorded: both Cdk5 complexes were inhibited | Inhibition of Cdk5 activity in neurons co-infected with Cdk5/P35 (Cdk5/P35 [3]): 10-20% | Effect on endogenous Cdk5/P35 activity (Cdk5/P35 [4]): no reduction in activity | Inhibition of Cdk5/P35 activity (Cdk5/P35 [5]): approximately 70%
